Target: NADPH-dependent imine reductase from Ajellomyces dermatitidis (Ajellomyces dermatitidis)
Experiment: crystal structure; three crystal forms, sitting drop, 298 K, protein at 40 mg/ml in 50 mM Tris-HCl pH 7.5, 300 mM NaCl; data set 1 P3(1)21 with NADPH4 (one dimer in the asymmetric unit), data set 2 C2(1) with NADP+ (nine molecules, four and a half dimers), data set 3 P3(1)21 with NADP+ and 2,2-difluoroacetophenone (half-dimer, partner by crystal symmetry)

Substance: NADPH-dependent imine reductase from Ajellomyces dermatitidis (enzyme)
- stoichiometry N: 2
